# In paper PMC3637499:
# What was measured:
# Chico-RFP (Drosophila) [1] = target: Chico-RFP (Drosophila) (UniProt Q9XTN2); assay: FRET or BRET; sensitised emission FRET, CFP donor and mRFP acceptor, confocal microscopy of fixed larval salivary glands co-expressing both fusions (hsp-Gal4); glands incubated 15 min in Schneider's medium without insulin; FRETeff >=10% taken as positive
# Chico-RFP (Drosophila) [2] = target: Chico-RFP (Drosophila) (UniProt Q9XTN2); assay: FRET or BRET; sensitised emission FRET, CFP donor and mRFP acceptor, confocal microscopy of fixed larval salivary glands co-expressing both fusions (hsp-Gal4); glands incubated 15 min in Schneider's medium with insulin (100 nM); FRETeff >=10% taken as positive
# InR-CFP (Drosophila) [3] = target: InR-CFP (Drosophila) (UniProt P09208); assay: FRET or BRET; sensitised emission FRET, CFP donor and mRFP acceptor, confocal microscopy of fixed larval salivary glands co-expressing both fusions (hsp-Gal4); glands incubated 15 min in Schneider's medium without insulin; FRETeff >=10% taken as positive
# Sequence of UniProt P09208 (P09208 1086-2144): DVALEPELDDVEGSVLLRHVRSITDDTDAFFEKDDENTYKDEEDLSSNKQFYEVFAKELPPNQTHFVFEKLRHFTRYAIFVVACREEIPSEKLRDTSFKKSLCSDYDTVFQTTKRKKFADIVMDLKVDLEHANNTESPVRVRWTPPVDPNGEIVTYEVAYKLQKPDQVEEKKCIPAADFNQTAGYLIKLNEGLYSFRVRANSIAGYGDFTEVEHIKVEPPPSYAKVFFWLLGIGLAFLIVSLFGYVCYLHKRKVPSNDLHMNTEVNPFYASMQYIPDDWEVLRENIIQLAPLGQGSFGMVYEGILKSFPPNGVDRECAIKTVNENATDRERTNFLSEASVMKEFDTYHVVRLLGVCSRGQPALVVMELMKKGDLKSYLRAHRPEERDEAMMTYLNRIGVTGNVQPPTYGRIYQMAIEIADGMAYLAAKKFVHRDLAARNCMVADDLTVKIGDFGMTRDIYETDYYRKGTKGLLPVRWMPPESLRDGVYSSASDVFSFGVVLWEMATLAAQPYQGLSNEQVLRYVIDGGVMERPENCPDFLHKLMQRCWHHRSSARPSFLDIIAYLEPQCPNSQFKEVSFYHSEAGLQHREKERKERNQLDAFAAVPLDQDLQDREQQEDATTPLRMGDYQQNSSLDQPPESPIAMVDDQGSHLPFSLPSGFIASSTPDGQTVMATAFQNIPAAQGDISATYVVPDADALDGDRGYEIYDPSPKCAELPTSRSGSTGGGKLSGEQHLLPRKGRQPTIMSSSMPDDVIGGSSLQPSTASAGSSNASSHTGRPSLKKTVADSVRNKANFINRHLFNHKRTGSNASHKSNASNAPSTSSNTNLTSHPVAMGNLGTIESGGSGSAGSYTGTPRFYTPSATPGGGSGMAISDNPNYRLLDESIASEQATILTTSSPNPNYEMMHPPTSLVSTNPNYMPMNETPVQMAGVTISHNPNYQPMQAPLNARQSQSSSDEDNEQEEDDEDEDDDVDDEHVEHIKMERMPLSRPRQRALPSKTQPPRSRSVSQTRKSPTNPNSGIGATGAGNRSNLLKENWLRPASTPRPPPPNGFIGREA
# InR-CFP (Drosophila) [4] = target: InR-CFP (Drosophila) (UniProt P09208); assay: FRET or BRET; sensitised emission FRET, CFP donor and mRFP acceptor, confocal microscopy of fixed larval salivary glands co-expressing both fusions (hsp-Gal4); glands incubated 15 min in Schneider's medium with insulin (100 nM); FRETeff >=10% taken as positive
# InR-CFP (Drosophila) [5] = target: InR-CFP (Drosophila) (UniProt P09208); assay: FRET or BRET; sensitised emission FRET, negative controls with Delta-RFP as acceptor in fixed larval salivary glands; insulin condition not stated; absence of FRET yields values <3%
# Lnk-CFP (Drosophila) = assay: as above
# InR-CFP (Drosophila) [6] = target: InR-CFP (Drosophila) (UniProt P09208); assay: FRET or BRET; sensitised emission FRET, CFP donor and mRFP acceptor, confocal microscopy of fixed larval salivary glands co-expressing both fusions (hsp-Gal4); glands incubated 15 min in Schneider's medium without insulin; FRETeff >=10% taken as positive; remark: listed apart in the source
# InR-CFP (Drosophila) [7] = target: InR-CFP (Drosophila) (UniProt P09208); assay: FRET or BRET; sensitised emission FRET, CFP donor and mRFP acceptor, confocal microscopy of fixed larval salivary glands co-expressing both fusions (hsp-Gal4); glands incubated 15 min in Schneider's medium with insulin (100 nM); FRETeff >=10% taken as positive; remark: listed apart in the source
molecule,measurement,setting,value
Lnk-CFP (natural protein),FRET efficiency (FRETeff),Chico-RFP (Drosophila) [1],13.3%
same,percent of tissue samples with positive FRET,Chico-RFP (Drosophila) [1],30%
same,FRET efficiency (FRETeff),Chico-RFP (Drosophila) [2],14.8%
same,percent of tissue samples with positive FRET,Chico-RFP (Drosophila) [2],73%
Lnk-RFP (natural protein),FRET efficiency (FRETeff),InR-CFP (Drosophila) [3],10.8%
same,percent of tissue samples with positive FRET,InR-CFP (Drosophila) [3],60%
same,FRET efficiency (FRETeff),InR-CFP (Drosophila) [4],14%
same,percent of tissue samples with positive FRET,InR-CFP (Drosophila) [4],53%
Delta-RFP (natural protein) QVHSSGSFELRLKYFSNDHGRDNEGRCCSGESDGATGKCLGSCKTRFRVCLKHYQATIDTTSQCTYGDVITPILGENSVNLTDAQRFQNKGFTNPIQFPFSFSWPGTFSLIVEAWHDTNNSGNARTNKLLIQRLLVQQVLEVSSEWKTNKSESQYTSLEYDFRVTCDLNYYGSGCAKFCRPRDDSFGHSTCSETGEIICLTGWQGDYCHIPKCAKGCEHGHCDKPNQCVCQLGWKGALCNECVLEPNCIHGTCNKPWTCICNEGWGGLYCNQDLNYCTNHRPCKNGGTCFNTGEGLYTCKCAPGYSGDDCENEIYSCDADVNPCQNGGTCIDEPHTKTGYKCHCANGWSGKMCEEKVLTCSDKPCHQGICRNVRPGLGSKGQGYQCECPIGYSGPNCDLQLDNCSPNPCINGGSCQPSGKCICPAGFSGTRCETNIDDCLGHQCENGGTCIDMVNQYRCQCVPGFHGTHCSSKVDLCLIRPCANGGTCLNLNNDYQCTCRAGFTGKDCSVDIDECSSGPCHNGGTCMNRVNSFECVCANGFRGKQCDEESYDSVTFDAHQYGATTQARADGLTNAQVVLIAVFSVAMPLVAVIAACVVFCMKRKRKRAQEKDDAEARKQNEQNAVATMHHNGSGVGVALASASLGGKTGSNSGLTFDGGNPNIIKNTWDKSVNNICASAAAAAAAAAAADECLMYGGYVASVADNNNANSDFCVAPLQRAKSQKQLNTDPTLMHRGSPAGSSAKGASGGGPGAAEGKRISVLGEGSYCSQRWPSLAAAGVAGACSSQLMAAASVAGSGAGTAQQQRSVVCGTPHM,FRET efficiency (FRETeff),InR-CFP (Drosophila) [5],< 3%
same,FRET efficiency (FRETeff),Lnk-CFP (Drosophila),< 3%
Chico-RFP (natural protein) MASISDDGMALSGYLKKLKTMKKKFFVLYEETSTSAARLEYYDTEKKFLQRAEPKRVIYLKNCFNINRRLDTKHRFVIVLSSRDGGFGIVLENENDLRKWLDKLLVLQRNIANSNGTAHSPYDHVWQVVIQKKGISEKVGITGTYHCCLTSKSLTFVCIGPEKTPNGEDRVASIEILLTTIRRCGHASPQCIFYVELGRQSVLGSGDLWMETDNAAIATNMHNTILSAMSAKTESNTNLINVYQNRPDLSHEPMRKRSSSANEASKPINVNVIQNSQNSLELRSCSSPHNYGFGRERCDSLPTRNGTLSESSNQTYFGSNHGLRSNTISGIRPHSTNKHSNSPTFTMPLRCSESEESSISVDESDDNGSFSHYRLNTRSSETAIPEENIDDFASAELFSKVTEQNVSDENYIPMNPVNPTDAIHEKEKADMQRLEDASLHFNFPEHASEKLAKDFDLDSDNQCCRPIRAYSIGNKVEHLKFNKRLGHLNDTGQNPNRVRAYSVGSKSKIPRCDLQRVVLVEDNKHEFTANRSQSSITKEGTSYGSSANRQKKSTSAPLLSLKNQINSDRMSDLMEIDFSQATNLEKQKFIKNNEIPKYIENVFPKAPRTDSSSLTLHATSQKDIFNGTKLNNTAITSEDGYLEMKPVGNGYTPSSNCLPMKVEKLKLSDYQTAPPLTATAAPVHDLNKISTYNISAEKWREQPSRSEEKKSNSPLNDNTFSSKPTNVESTSKSHDVHSANQIDCEKVCAQSSDKLNNHLADKIVENNNLDIGGHEEKKLVHSISSEDYTQIKDKSNDFTKFNEAGYKILQIKSDSSLISSKLYQKGIHKDNLERSQRLTESVNTIPDNATATAVSSSSLTKFNINSAKPAAAADSRSTGTDPSTPQNILQIKDLNFPSRSSSRISQPELHYASLDLPHCSGQNPAKYLKRGSRESPPVSACPEDGNTYAKIDFDQSDSSSSSSNIFNT,FRET efficiency (FRETeff),InR-CFP (Drosophila) [6],13.5%
same,percent of tissue samples with positive FRET,InR-CFP (Drosophila) [6],20%
same,FRET efficiency (FRETeff),InR-CFP (Drosophila) [7],14.1%
same,percent of tissue samples with positive FRET,InR-CFP (Drosophila) [7],71%
